US20200277377A1 (WUXI BIOLOGICS SHANGHAI, published 2020)
Positions count from the first letter of the chain named. Values belong to the binder of their own block, whether it stands above or below them.

Legend:
Test in all cases: capture ELISA, alanine scan, vs silent alanine substitutions
[1] = target: T1, hCTLA4_ECD.His point mutant M38 to alanine (human, UniProt P16410 36-161)
T1 construct: extracellular domain; alanine-scan mutein, HEK293F supernatant
T1 sequence (looked up): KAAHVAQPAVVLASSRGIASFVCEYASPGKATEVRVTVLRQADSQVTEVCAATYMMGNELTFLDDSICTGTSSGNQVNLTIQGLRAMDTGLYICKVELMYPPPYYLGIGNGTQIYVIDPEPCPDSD
Method: (§1) In order to test how the mutations affect antibody-binding, a capture ELISA was conducted. […] After interacting with the supernatant that contains quantified CTLA4 muteins, HRP conjugated anti-His antibody (1:5000; Rockland Immunochemicals, Pottstown, Pa.) was added as detection antibody. TMB was used as substance of HRP. Absorbance was normalized according to the average of control mutants. After setting an additional cutoff to the binding fold change (<0.55), the final determined epitope residues were identified.

[2] = target: T2, hCTLA4_ECD.His point mutant H39 to alanine (human, UniProt P16410 36-161)
T2 construct: extracellular domain; alanine-scan mutein, HEK293F supernatant
T2 sequence (looked up): T1 sequence (looked up) with A3M, H4A
Method: as §1

[3] = target: T3, hCTLA4_ECD.His point mutant V71 to alanine (human, UniProt P16410 36-161)
T3 construct: extracellular domain; alanine-scan mutein, HEK293F supernatant
T3 sequence (looked up): T1 sequence (looked up) with A3M, V36A
Method: as §1

[4] = target: T4, hCTLA4_ECD.His point mutant V73 to alanine (human, UniProt P16410 36-161)
T4 construct: extracellular domain; alanine-scan mutein, HEK293F supernatant
T4 sequence (looked up): T1 sequence (looked up) with A3M, V38A
Method: as §1

[5] = target: T5, hCTLA4_ECD.His point mutant L74 to alanine (human, UniProt P16410 36-161)
T5 construct: extracellular domain; alanine-scan mutein, HEK293F supernatant
T5 sequence (looked up): T1 sequence (looked up) with A3M, L39A
Method: as §1

[6] = target: T6, hCTLA4_ECD.His point mutant V84 to alanine (human, UniProt P16410 36-161)
T6 construct: extracellular domain; alanine-scan mutein, HEK293F supernatant
T6 sequence (looked up): T1 sequence (looked up) with A3M, V49A
Method: as §1

[7] = target: T7, hCTLA4_ECD.His point mutant C85 to alanine (human, UniProt P16410 36-161)
T7 construct: extracellular domain; alanine-scan mutein, HEK293F supernatant
T7 sequence (looked up): T1 sequence (looked up) with A3M, C50A
Method: as §1

[8] = target: T8, hCTLA4_ECD.His point mutant T88 to alanine (human, UniProt P16410 36-161)
T8 construct: extracellular domain; alanine-scan mutein, HEK293F supernatant
T8 sequence (looked up): T1 sequence (looked up) with A3M, T53A
Method: as §1

[9] = target: T9, hCTLA4_ECD.His point mutant C129 to alanine (human, UniProt P16410 36-161)
T9 construct: extracellular domain; alanine-scan mutein, HEK293F supernatant
T9 sequence (looked up): T1 sequence (looked up) with A3M, C94A
Method: as §1

[10] = target: T10, hCTLA4_ECD.His point mutant M134 to alanine (human, UniProt P16410 36-161)
T10 construct: extracellular domain; alanine-scan mutein, HEK293F supernatant
T10 sequence (looked up): T1 sequence (looked up) with A3M, M99A
Method: as §1

[11] = target: T11, hCTLA4_ECD.His point mutant P136 to alanine (human, UniProt P16410 36-161)
T11 construct: extracellular domain; alanine-scan mutein, HEK293F supernatant
T11 sequence (looked up): T1 sequence (looked up) with A3M, P101A
Method: as §1

[12] = target: T12, hCTLA4_ECD.His point mutant P137 to alanine (human, UniProt P16410 36-161)
T12 construct: extracellular domain; alanine-scan mutein, HEK293F supernatant
T12 sequence (looked up): T1 sequence (looked up) with A3M, P102A
Method: as §1

[13] = target: T13, hCTLA4_ECD.His point mutant P138 to alanine (human, UniProt P16410 36-161)
T13 construct: extracellular domain; alanine-scan mutein, HEK293F supernatant
T13 sequence (looked up): T1 sequence (looked up) with A3M, P103A
Method: as §1

- Fold change [1]: 0.238 fold
- Fold change [2]: 0.549 fold
- Fold change [3]: 0.347 fold
- Fold change [4]: 0.498 fold
- Fold change [5]: 0.52 fold
- Fold change [6]: 0.232 fold
- Fold change [7]: 0.218 fold
- Fold change [8]: 0.433 fold
- Fold change [9]: 0.211 fold
- Fold change [10]: 0.455 fold
- Fold change [11]: 0.155 fold
- Fold change [12]: 0.534 fold
- Fold change [13]: 0.339 fold
B1: W3162_1.154.8-z35-uAb.IgG1K (antibody, V domains shown)
VH: QVQLVQSGAEVKKPGSSVKVSCKASGYTFTNYFMNWVRQAPGQGLEWMGRVDPEQGRADYAEKFKKRVTITADKSTSTAYMELSSLRSEDTAVYYCARRAMDNYGFAYWGQGTLVTVSS
VL: EIVLTQSPDFQSVTPKEKVTITCSANSALSYMYWYQQKPDQSPKLWVHGTSNLASGVPSRFSGSGSGTDFTLTINSLEAEDAATYYCHHWSNTQWTFGGGTKVEIK
notes: Humanized; label says IgG1K

- Fold change [1]: 0.182 fold
- Fold change [2]: 0.529 fold
- Fold change [3]: 0.343 fold
- Fold change [4]: 0.338 fold
- Fold change [5]: 0.398 fold
- Fold change [6]: 0.201 fold
- Fold change [7]: 0.256 fold
- Fold change [8]: 0.423 fold
- Fold change [9]: 0.182 fold
- Fold change [10]: 0.254 fold
- Fold change [11]: 0.231 fold
- Fold change [12]: 0.425 fold
- Fold change [13]: 0.445 fold
B2: W3162-1.146.19-z12-uAb.IgG1K (antibody, V domains shown)
VH: QVQLQESGPGLVKPSETLSLTCSVTYHTITSGYDWTWIRKPPGKGMEWIGYISYSGNTNYNPSLKSRVTISRDTSKNQFFLKLSSVTAADTAVYYCASMMVPHYYVMDAWGQGTLVTVSS
VL: DIVMTQTPLSLSVTPGQPASISCRSSQSLLNSDGNTYLYWYLQKPGQSPQLLIYLVSKLGSGVPNRFSGSGSGTDFTLKISRVEAEDVGVYYCVQGTHDPWTFGGGTKVEIK
notes: Humanized; label says IgG1K
